# Publication PMC8136821
# Molecular target: H. pylori RNase R (HpRNase R), recombinant, His-tagged (H. pylori)
# Test: AUC
# Sequence of RhpA DEAD-box RNA helicase of H. pylori, recombinant, His-tagged (enzyme) (B9XXL6 whole entry): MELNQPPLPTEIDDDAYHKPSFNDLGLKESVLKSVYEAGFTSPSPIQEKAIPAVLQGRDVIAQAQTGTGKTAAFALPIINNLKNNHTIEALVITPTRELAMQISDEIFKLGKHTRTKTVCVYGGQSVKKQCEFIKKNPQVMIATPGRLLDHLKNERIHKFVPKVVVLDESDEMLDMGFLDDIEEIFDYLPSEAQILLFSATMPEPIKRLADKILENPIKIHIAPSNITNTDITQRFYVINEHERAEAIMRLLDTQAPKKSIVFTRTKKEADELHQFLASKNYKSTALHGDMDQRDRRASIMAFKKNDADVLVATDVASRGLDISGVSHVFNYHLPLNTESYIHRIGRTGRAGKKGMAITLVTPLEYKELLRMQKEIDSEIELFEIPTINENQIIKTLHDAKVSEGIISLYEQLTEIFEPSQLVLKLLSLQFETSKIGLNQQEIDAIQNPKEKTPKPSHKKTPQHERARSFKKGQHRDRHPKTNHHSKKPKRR
# Sequence of H. pylori RNase R (HpRNase R), recombinant, His-tagged (H. pylori) (P56123 whole entry): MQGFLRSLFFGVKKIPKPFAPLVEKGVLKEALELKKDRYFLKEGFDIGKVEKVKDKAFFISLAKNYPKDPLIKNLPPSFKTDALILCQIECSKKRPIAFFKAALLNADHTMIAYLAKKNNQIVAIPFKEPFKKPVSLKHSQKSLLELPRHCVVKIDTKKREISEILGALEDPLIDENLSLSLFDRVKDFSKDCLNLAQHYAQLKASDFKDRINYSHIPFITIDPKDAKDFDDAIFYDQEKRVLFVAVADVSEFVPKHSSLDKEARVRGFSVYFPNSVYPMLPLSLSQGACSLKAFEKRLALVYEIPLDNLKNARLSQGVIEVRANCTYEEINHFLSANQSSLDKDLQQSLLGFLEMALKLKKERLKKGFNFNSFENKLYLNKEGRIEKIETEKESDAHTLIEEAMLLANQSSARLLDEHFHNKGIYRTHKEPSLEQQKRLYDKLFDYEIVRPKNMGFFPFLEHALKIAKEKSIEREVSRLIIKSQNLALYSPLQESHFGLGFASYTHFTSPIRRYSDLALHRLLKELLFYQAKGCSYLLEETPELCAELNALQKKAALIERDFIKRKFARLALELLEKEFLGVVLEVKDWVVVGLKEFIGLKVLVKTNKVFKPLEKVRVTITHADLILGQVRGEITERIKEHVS
substance,measurement,value
"RhpA DEAD-box RNA helicase of H. pylori, recombinant, His-tagged (enzyme)",stoichiometry N,1
